# Reference: the RNAGym collection of RNA variant scans (doi:10.1073/pnas.2313332121)
# Fewer inactive variants are shown than the library holds.
# B1: TPR 5TU (parent)
# chain: GGAUCUUCUCGAUCUAACAAAAAAGACAAAUCUGCCACAAAGCUUGAGAGCAUCUUCGGAUGCAGAGGCGGCAGCCUUCGGUGGCGCGAUAGCGCCAACGUUCUCAACUAUGACACGCAAAACGCGUGCUCCGUUGAAUGGAGUUUAUCAUG
# Variants of: B1
# Test: polymerase ribozyme fitness, log enrichment relative to wild type (log ratio); higher = more active; in vitro selection for triplet polymerase activity
# Procedure, shortened: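 Fitness compares each genotype's enrichment to that of the wild type on a logarithmic scale, averaging replicates with inverse-variance weights. The logarithm is base 2. Enrichment came from Illumina sequencing of input and output libraries after one triplicate round of in vitro selection, which included frozen incubation at −7 °C, of PCR-built, transcribed mutant libraries of each subunit of a heterodimeric triplet polymerase ribozyme. Only genotypes with ≥10 input reads and ≥1 read per output were kept.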
row,Variant,polymerase ribozyme fitness (log ratio)
1,U45G A49C C63G G84A G141C,≤ -4.2
2,A41U A52U C57U U61C,≤ -4.2
3,A41G C43A G59C,≤ -4.2
4,U45A C118U A120C,-2.58
5,A41U G92U G141A,-1.22
6,G42U G65C G70A C76A G86U U139G A142U,≤ -4.2
7,C43U U53A,≤ -4.2
8,U44A U56A A64C A91U C105U C108G A110C U135G,≤ -4.2
9,C43U G80A A115G,≤ -4.2
10,G42C U56A C79A,≤ -4.2
11,U44A U45A A47C G86A U130G,≤ -4.2
12,U45G G70A G92U G94A C116G G152U,≤ -4.2
13,C43A C54U G71C C103U A115U G117U,≤ -4.2
14,A41G G70A C93U A98U,-3.95
15,G46A A49C G71U G86A C96U A97U,≤ -4.2
16,G42C G133C G143C,≤ -4.2
17,U45A G74A C105U,≤ -4.2
18,G42U C54G C57U G65A G92C A110C,≤ -4.2
19,A41G U56A G58C C87A C108G G143C,≤ -4.2
20,G42C G59A C93G A106C,≤ -4.2
21,A41G,0.583

row,Variant,polymerase ribozyme fitness (log ratio)
1,A41U,-0.621
2,G42U C93A C96U,≤ -4.2
3,U44A A49C C54G C57U G58C C95G C96U,≤ -4.2
4,A41U G42A U44C A64U C76G C96U A107U,≤ -4.2
5,A41U A52U U55C A66U,≤ -4.2
6,U45A C118A,-3.79
7,U45C,0.188
8,U45G,-0.42
9,U45A,-2.1
10,A41U A47U C99G A107U,≤ -4.2
11,G42C G143C,≤ -4.2
12,G42A G59U,-3.95
13,G42A G48A U53A C76A C93G,≤ -4.2
14,C43U C87U,-3.73
15,G46A A49C G59C U61A G86U,≤ -4.2
16,U45A G136C,≤ -4.2
17,U44A G86C A120C U146C,≤ -4.2
18,U45A C76A C85A,≤ -4.2
19,A41G C57A,0.0695
20,G42U C116A U135G,≤ -4.2
21,G46A C54G,-1.88

row,Variant,polymerase ribozyme fitness (log ratio)
1,U44G,-3.7
2,U44C,-1.11
3,U44A,-3.72
4,U45G G59A G84A A89G C118U,-3.18
5,G46A,-0.076
6,U45A C87U,-3.28
7,G42C C95U,-4.14
8,A41U A49U,-2.28
9,A41U A47C G59U U61A A66U C85G A107C U148C,≤ -4.2
10,G42C A52G U55A U56A G68A,≤ -4.2
11,G42U C63U G68A C95U G112U U146G,≤ -4.2
12,U45G A49C G62C G94C C118G,≤ -4.2
13,U45A G86A,-3.54
14,A41U C54U,-0.75
15,A41U C51U C85A A115U A142U,≤ -4.2
16,U44C U146C,-3.77
17,G42A G80C G86C,≤ -4.2
18,C43U C54A C79U A91U A142U G143A,≤ -4.2
19,U44G U55A C93A A120G,≤ -4.2
20,A41G U56G G58U G81A G84A C116U C149U,-1.86
21,A41G C54A U56G C57U G84U C99G U109C U146C,≤ -4.2

row,Variant,polymerase ribozyme fitness (log ratio)
1,G42A C69G C72G C96U G143A,≤ -4.2
2,G42C G80C G86U C118U A121G A150G,≤ -4.2
3,G42U G92C,-3.85
4,U44A A60G G67A G92U C105A,≤ -4.2
5,U44A G50A G65C C76G U90G,≤ -4.2
6,G42U G59A,≤ -4.2
7,C43G,-4.17
8,C43U,-4.01
9,C43A,-4
10,G42C U53G G71A G92C C105G A137G,≤ -4.2
11,C43U A119G,≤ -4.2
12,U45G G92C,-2.2
13,C43U C85G G88A C93G A97U C125A C132G G140C,≤ -4.2
14,A41C U55G G81A C85U,-0.432
15,A41G G92A C99U G126C C149A,≤ -4.2
16,G42A G50C,≤ -4.2
17,U45A A91U,-3.74
18,U45A A91G,-4.12
19,A41U C123G,-1.42
20,U44G C54U C87U A91U G141C G143C,≤ -4.2
